# Numbering of substitutions follows the chain as printed.
# B1: SEQ ID NO: 371: GAT polypeptide (protein)
# chain: MIEVNPINAEDTYEIRHRILRPNQPLEACMYETDLLGGTSHLGGYYRGKLISIASFHNAEHSELDGQKQYQLRGMATLEGYREQKAGSTLIRHAEELLRKKGADLLWCNARTSVSGYYEKLGFSEQGEVYDIPPIGPHISMYKKLT
# modifications: 4B_18F11
# notes: GAT polypeptide
# B2: SEQ ID NO: 445: GAT polypeptide (protein)
# chain: MLEVKPINAEDTYELRHRILRPNQPIEACMYESDLLRGAFHLGGYYRGKLISIASFHQAEHSELQGQKQYQLRGMATLEGYREQKAGSSLIKHAEEILRKRGADLLWCNARTSASGYYKKLGFSEQGEIFETPPVGPHILMYKRIT
# modifications: 0_5D3
# notes: GAT polypeptide
# B3: SEQ ID NO: 457: GAT polypeptide (protein)
# chain: B2 chain with R18K, I26L, A28V, S33T, Y45F, I129V, E131D
# modifications: 10_4H4
# notes: GAT polypeptide
# B4: SEQ ID NO: 364: GAT polypeptide (protein)
# chain: MIEVKPINAEDTYEIRHRILRPNQPLEACMYETDLLGGTFHLGGYYQDRLISIASFHQAEHSELEGQKQYQLRGMATLEGYREQKAGSTLIRYAEELLRKKGADLLWCNARISASGYYEKLGFSEQGEVYDIPPIGPHILMYKKLT
# modifications: 3C_9H8
# notes: GAT polypeptide
# B5: SEQ ID NO: 300: GAT polypeptide (protein)
# chain: MIEVKPINAEDTYEIRHRILRPNQPLEACMYETDSLGGTFHLGGYYRGKLISIASFNQAEHPELEGQKQYQLRGMATLEGYREQKAGSTLIRHAEELLRKKGADLLWCNARTSASGYYKKLGFSEQGEVYDTPPVGPHILMYKKLT
# modifications: 13_6D10
# notes: GAT polypeptide
# B6: SEQ ID NO: 376: GAT polypeptide (protein)
# chain: B5 chain with V4A, M30K, S35L, N57H, P62S, T132I, V135I
# modifications: 4B_2H8
# notes: GAT polypeptide
# B7: SEQ ID NO: 372: GAT polypeptide (protein)
# chain: B5 chain with M30K, S35L, N57H, E128G, T132I, V135I, T146A
# modifications: 4B_19C8
# notes: GAT polypeptide
# B8: SEQ ID NO: 382: GAT polypeptide (protein)
# chain: B5 chain with M30K, S35L, N57H, P62S, T132I
# modifications: 6_15G7
# notes: GAT polypeptide
# B9: SEQ ID NO: 375: GAT polypeptide (protein)
# chain: B5 chain with S35L, N57H, P62S, E128G, D131G, T132I, V135I
# modifications: 4B_2H7
# notes: GAT polypeptide
# B10: SEQ ID NO: 369: GAT polypeptide (protein)
# chain: B5 chain with M30K, S35L, N57H, P62S, E128G, T132I, V135I
# modifications: 4B_16E1
# notes: GAT polypeptide
# B11: SEQ ID NO: 374: GAT polypeptide (protein)
# chain: B4 chain with Q47R, D48G, R49K, G80E, Y93H, E119K, E128G
# modifications: 4B_21C6
# notes: GAT polypeptide
# B12: SEQ ID NO: 357: GAT polypeptide (protein)
# chain: B5 chain with K5R, S35L, N57H, P62S, V129A, T132I, V135I
# modifications: 3B_10C4
# notes: GAT polypeptide
# B13: SEQ ID NO: 267: GAT polypeptide (protein)
# chain: B5 chain with M30K, S35L, G37R, T39A, I51V, N57H, E96A, V135A
# modifications: 14_2F11
# notes: GAT polypeptide
# B14: SEQ ID NO: 379: GAT polypeptide (protein)
# chain: B5 chain with S35L, G37R, T39A, N57H, K119E, T132I, V135I
# modifications: 4C_8C9
# notes: GAT polypeptide
# B15: SEQ ID NO: 360: GAT polypeptide (protein)
# chain: B4 chain with T39A, Q47R, D48G, R49K, Q58P, Y93H
# modifications: 3B_12D10
# notes: GAT polypeptide
# B16: SEQ ID NO: 380: GAT polypeptide (protein)
# chain: B4 chain with T39A, D48G, R49K, E60V, Y93H, I112T, A114V, E119K, E128G
# modifications: 4H1
# notes: GAT polypeptide
# B17: SEQ ID NO: 362: GAT polypeptide (protein)
# chain: B5 chain with S35L, N57H, P62S, T112I, E128G, T132I
# modifications: 3C_10H3
# notes: GAT polypeptide
# B18: SEQ ID NO: 368: GAT polypeptide (protein)
# chain: B5 chain with S35L, N57H, P62S, E128G, T132I, V135I, H138Y
# modifications: 4B_13G10
# notes: GAT polypeptide
# B19: SEQ ID NO: 383: GAT polypeptide (protein)
# chain: B5 chain with M30K, S35L, N57H, P62S, E128G, T132I
# modifications: 6_16A5
# notes: GAT polypeptide
# B20: SEQ ID NO: 378: GAT polypeptide (protein)
# chain: B5 chain with S35L, N57H, P62S, A114V, T132I, V135I
# modifications: 4B_7E8
# notes: GAT polypeptide
# B21: SEQ ID NO: 381: GAT polypeptide (protein)
# chain: B5 chain with S35L, N57H, P62S, Q67H, G80E, E128G, T132I
# modifications: 6_14D10
# notes: GAT polypeptide
# B22: SEQ ID NO: 361: GAT polypeptide (protein)
# chain: B4 chain with Q47R, D48G, R49K, Y93H, I112T, E125K
# modifications: 3B_2E5
# notes: GAT polypeptide
# B23: SEQ ID NO: 359: GAT polypeptide (protein)
# chain: B5 chain with S35L, N57H, P62S, T132I, V135I
# modifications: 3B_12B1
# notes: GAT polypeptide
# B24: SEQ ID NO: 373: GAT polypeptide (protein)
# chain: B5 chain with M30K, S35L, T39A, N57H, A59S, Q84L, T112I, T132I, V135I
# modifications: 4B_1G4
# notes: GAT polypeptide
# B25: SEQ ID NO: 358: GAT polypeptide (protein)
# chain: B5 chain with S35L, N57H, P62S, E128G, T132I, V135I
# modifications: 3B_10G7
# notes: GAT polypeptide
# B26: SEQ ID NO: 384: GAT polypeptide (protein)
# chain: B5 chain with S35L, N57H, E60V, P62S, E128G, T132I
# modifications: 6_16F5
# notes: GAT polypeptide
# B27: SEQ ID NO: 377: GAT polypeptide (protein)
# chain: B5 chain with M30K, S35L, N57H, P62S, Q126H, T132I, V135I
# modifications: 4B_6D8
# notes: GAT polypeptide
# B28: SEQ ID NO: 363: GAT polypeptide (protein)
# chain: B4 chain with Q47R, D48G, R49K, E83G, Y93H, I112T
# modifications: 3C_12H10
# notes: GAT polypeptide
# B29: SEQ ID NO: 268: GAT polypeptide (protein)
# chain: B5 chain with S35L, G37R, T39A, N57H, P62S
# modifications: CHIMERA
# notes: GAT polypeptide
# B30: SEQ ID NO: 370: GAT polypeptide (protein)
# chain: B5 chain with M30K, S35L, N57H, G80E, K119E, T132I, V135I
# modifications: 4B_17A1
# notes: GAT polypeptide
# B31: SEQ ID NO: 365: GAT polypeptide (protein)
# chain: B5 chain with S35L, N57H, K119E, T132I, V135I
# modifications: 4A_1B11
# notes: GAT polypeptide
# B32: SEQ ID NO: 366: GAT polypeptide (protein)
# chain: B5 chain with M30K, S35L, N57H, P62S, G80E, T132I, V135I
# modifications: 4A_1C2
# notes: GAT polypeptide
# B33: SEQ ID NO: 367: GAT polypeptide (protein)
# chain: B4 chain with M30K, Q47R, D48G, R49K, S62P, G80E, Y93H
# modifications: 4B_13E1
# notes: GAT polypeptide
# Test: Standard protocol for determination of kcat and KM (continuous spectrophotometric assay, Acetyl CoA hydrolysis at 235 nm)
# Format: biochemical
# Settings: purified protein; about 23° C.; 20 mM HEPES pH 6.8, 10% ethylene glycol, 0.2 mM acetyl CoA
# Method: KM was calculated from the initial reaction rates obtained from concentrations of glyphosate ranging from 0.125 to 10 mM, using the Lineweaver-Burke transformation of the Michaelis-Menten equation. kcat/KM was determined by dividing the value determined for kcat by the value determined for KM.
# Using this methodology, kinetic parameters for a number of GAT polypeptides exemplified herein were determined. For example, the kcat, KM and kcat/KM for the GAT polypeptide corresponding to SEQ ID NO:445 have been determined to be 322 min^−1, 0.5 mM and 660 mM^−1 min^−1, respectively, using the assay conditions described above. The kcat, KM and kcat/KM for the GAT polypeptide corresponding to SEQ ID NO:457 have been determined to be 118 min^−1, 0.1 mM and 1184 mM^−1 min^−1, respectively, using the assay conditions described above. The kcat, KM and kcat/KM for the GAT polypeptide corresponding to SEQ ID NO:300 have been determined to be 296 min^−1, 0.65 mM and 456 mM^−1 min^−1, respectively, using the assay conditions described above. One of skill in the art can use these numbers to confirm that a GAT activity assay is generating kinetic parameters for a GAT suitable for comparison with the values given herein. For example, the conditions used to compare the activity of GATs should yield the same kinetic constants for SEQ ID NO: 300, 445 and 457 (within normal experimental variance) as those reported herein, when the conditions are used to compare a test GAT with the GAT polypeptides exemplified herein. Kinetic parameters for a number of GAT polypeptide variants were determined according to this methodology and are provided in Table 3.
row,Molecule,Kcat
1,B1,0.243 s⁻¹
2,B2,5.37 s⁻¹
3,B3,1.9727 s⁻¹
4,B4,0.195 s⁻¹
5,B5,4.942 s⁻¹
6,B6,0.638 s⁻¹
7,B7,0.265 s⁻¹
8,B8,0.807 s⁻¹
9,B9,0.45 s⁻¹
10,B10,0.283 s⁻¹
11,B11,0.197 s⁻¹
12,B12,0.413 s⁻¹
13,B13,2.282 s⁻¹
14,B14,0.15 s⁻¹
15,B15,0.09 s⁻¹
16,B16,0.0217 s⁻¹
17,B17,0.565 s⁻¹

row,Molecule,Kcat
1,B18,0.582 s⁻¹
2,B19,0.73 s⁻¹
3,B20,0.342 s⁻¹
4,B21,0.703 s⁻¹
5,B22,0.273 s⁻¹
6,B23,0.38 s⁻¹
7,B24,0.0617 s⁻¹
8,B25,0.327 s⁻¹
9,B26,0.587 s⁻¹
10,B27,0.378 s⁻¹
11,B28,0.152 s⁻¹
12,B29,2.59 s⁻¹
13,B30,0.318 s⁻¹
14,B31,0.387 s⁻¹
15,B32,0.34 s⁻¹
16,B33,0.62 s⁻¹

# Same assay, conditions: purified protein; about 23° C.; 20 mM HEPES pH 6.8, 10% ethylene glycol, 0.2 mM acetyl CoA; listed as SEQ ID NO:300
row,Molecule,Kcat
1,B5,4.93 s⁻¹

# Same assay, conditions: purified protein; about 23° C.; 20 mM HEPES pH 6.8, 10% ethylene glycol, 0.2 mM acetyl CoA; listed as SEQ ID NO:457
row,Molecule,Kcat
1,B3,1.97 s⁻¹

# Same assay, conditions: purified protein; about 23° C.; pH 6.8; 0.2 mM acetyl CoA; glyphosate 0.125 to 10 mM
row,Molecule,Km
1,B1,1700 µM
2,B2,500 µM
3,B3,100 µM
4,B4,1000 µM
5,B5,650 µM
6,B6,1200 µM
7,B7,1200 µM
8,B8,1300 µM
9,B9,6200 µM
10,B10,1000 µM
11,B11,800 µM
12,B12,1600 µM
13,B13,1700 µM
14,B14,600 µM
15,B15,900 µM
16,B16,1400 µM
17,B17,1100 µM

row,Molecule,Km
1,B18,7600 µM
2,B19,1100 µM
3,B20,1200 µM
4,B21,1500 µM
5,B22,1300 µM
6,B23,1200 µM
7,B24,1000 µM
8,B25,1000 µM
9,B26,1000 µM
10,B27,1500 µM
11,B28,1200 µM
12,B29,1300 µM
13,B30,1100 µM
14,B31,1600 µM
15,B32,1200 µM
16,B33,2000 µM

# Source: patent publication US8008547B2, “Glyphosate-N-acetyltransferase (GAT) genes” (E.I. duPont de Nemours, priority 2000, dated 2011)
